# Measurements taken from patent US20210246166A1 (Bayer, published 2021).
# Numbered stars: 1 amine (or outer) side, 2 acyl side, 3 side chain; on linkers, the order of the positions; unused ones are H or OH. Bridge positions count the residues as written; N and C are the ends. Square brackets hold non-standard residues; d marks the D form. Ends that are not written are not given here. Phe(2,3-F2) = (2S)-3-(2,3-difluorophenyl)-2-aminopropanoic acid, O=C([C@H](Cc1cccc(F)c1F)N[*:1])[*:2]; X7 = 4‑(3,5-Dimethyl-1,2-oxazol-4-yl)‑L‑phenylalanine, Cc1noc(C)c1-c1ccc(C[C@H](N[*:1])C(=O)[*:2])cc1; X3 = (1R,3S)‑3‑(Amino)cyclopentanecarboxylic acid, O=C([C@@H]1CC[C@H](N[*:1])C1)[*:2]; X8 = (R)‑4‑Amino‑6‑methylheptanoic acid, CC(C)C[C@@H](CCC(=O)[*:2])N[*:1]; His(τ-Bzl) = N[C@@H](Cc1cn(Cc2ccccc2)cn1)C(=O)O; Pro(4-spirocPr) = O=C(O)[C@@H]1CC2(CC2)CN1; Oic = O=C(O)[C@@H]1C[C@@H]2CCCC[C@@H]2N1; tBuAla = CC(C)(C)C[C@H](N)C(=O)O; (3-Me)H = L-3-methylhistidine; Pen = CC(C)(S)[C@H](N)C(=O)O; NMeA = CN[C@@H](C)C(=O)O; Orn = NCCC[C@H](N)C(=O)O; Nva = CCC[C@H](N)C(=O)O; Sar = CNCC(=O)O
# T1: recombinant rat MASP1 active protease (amino acids 302-704, C-terminal His Tag) (rat, UniProt Q8CHN8 302-704)
# T1 sequence: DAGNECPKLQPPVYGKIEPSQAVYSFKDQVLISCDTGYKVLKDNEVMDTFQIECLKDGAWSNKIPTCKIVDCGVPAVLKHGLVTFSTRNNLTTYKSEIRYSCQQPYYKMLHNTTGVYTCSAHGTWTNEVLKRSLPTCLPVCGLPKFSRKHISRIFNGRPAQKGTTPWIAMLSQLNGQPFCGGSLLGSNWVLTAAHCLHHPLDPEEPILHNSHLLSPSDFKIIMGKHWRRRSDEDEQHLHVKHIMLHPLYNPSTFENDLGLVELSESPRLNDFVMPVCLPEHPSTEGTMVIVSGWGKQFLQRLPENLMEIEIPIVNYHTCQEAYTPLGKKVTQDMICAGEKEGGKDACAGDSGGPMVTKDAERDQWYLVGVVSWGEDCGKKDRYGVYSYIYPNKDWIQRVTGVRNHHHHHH
# Assays:
# [1] = molecular target: T1, recombinant rat MASP1 active protease …; assay: cell-based or functional assay
# [2] = molecular target: recombinant rat MASP2 active protease (amino acids 296-685, C-terminal His Tag) (rat, UniProt Q9JJS8 296-685); assay: cell-based or functional assay
# Sequence of recombinant rat MASP2 active protease (amino acids 296-685, C-terminal His Tag) (Q9JJS8 other isoform, or with tags, fused parts or gaps limits assumed): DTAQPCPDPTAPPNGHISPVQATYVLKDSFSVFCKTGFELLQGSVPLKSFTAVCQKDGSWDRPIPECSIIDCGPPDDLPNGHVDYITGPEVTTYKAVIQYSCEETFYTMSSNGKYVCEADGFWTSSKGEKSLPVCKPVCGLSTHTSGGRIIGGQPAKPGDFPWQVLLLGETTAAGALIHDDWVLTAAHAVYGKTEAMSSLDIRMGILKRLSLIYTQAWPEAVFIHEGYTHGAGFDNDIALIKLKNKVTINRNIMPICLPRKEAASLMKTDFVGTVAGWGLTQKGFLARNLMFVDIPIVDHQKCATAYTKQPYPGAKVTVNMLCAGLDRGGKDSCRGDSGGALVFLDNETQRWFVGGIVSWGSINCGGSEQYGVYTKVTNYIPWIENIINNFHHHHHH
Binder,rat MASP1 IC50 [1],rat MASP2 IC50 [2]
"[Sar]ICSRS[Phe(2,3-F2)]PPI[Pen]IP-NH2 (disulfide 3-11; N-terminus assumed; SMILES CC[C@H](C)[C@H](NC(=O)CNC)C(=O)N[C@H]1CSSC(C)(C)[C@@H](C(=O)N[C@H](C(=O)N2CCC[C@H]2C(N)=O)[C@@H](C)CC)NC(=O)[C@H]([C@@H](C)CC)NC(=O)[C@@H]2CCCN2C(=O)[C@@H]2CCCN2C(=O)[C@H](Cc2cccc(F)c2F)NC(=O)[C@H](CO)NC(=O)[C@H](CCCNC(=N)N)NC(=O)[C@H](CO)NC1=O) [Example 440: ((N-Me)G)-IC+SRS-((2S)-3-(2,3-difluorophenyl)-2-aminopropanoic acid)-PPI-(Pen)+IP-NH2]",610 nM,14 nM
[Sar]ICSRSLP[Oic]I[Pen]IPP[(2S)‑3‑(Triazol-1-yl)‑2‑(amino)propanoic acid]-NH2 (disulfide 3-11),39 nM,31 nM
"[Sar]ICSRSLP[Oic]I[Pen]IP[X3]-OH (disulfide 3-11; N-terminus assumed; SMILES CC[C@H](C)[C@H](NC(=O)CNC)C(=O)N[C@H]1CSSC(C)(C)[C@@H](C(=O)N[C@H](C(=O)N2CCC[C@H]2C(=O)N[C@H]2CC[C@@H](C(=O)O)C2)[C@@H](C)CC)NC(=O)[C@H]([C@@H](C)CC)NC(=O)[C@@H]2C[C@@H]3CCCC[C@@H]3N2C(=O)[C@@H]2CCCN2C(=O)[C@H](CC(C)C)NC(=O)[C@H](CO)NC(=O)[C@H](CCCNC(=N)N)NC(=O)[C@H](CO)NC1=O) [Example 449: ((N-Me)G)-IC+SRSLP-(Oic)-I-(Pen)+IP-((1R,3S)-3-(Amino)cyclopentanecarboxylic acid)-OH]",45 nM,44.5 nM
[Sar]ICRRS[tBuAla]PP[Nva][Pen]IP-NH2 (disulfide 3-11; N-terminus assumed; SMILES CCC[C@@H]1NC(=O)[C@@H]2CCCN2C(=O)[C@@H]2CCCN2C(=O)[C@H](CC(C)(C)C)NC(=O)[C@H](CO)NC(=O)[C@H](CCCNC(=N)N)NC(=O)[C@H](CCCNC(=N)N)NC(=O)[C@@H](NC(=O)[C@@H](NC(=O)CNC)[C@@H](C)CC)CSSC(C)(C)[C@@H](C(=O)N[C@H](C(=O)N2CCC[C@H]2C(N)=O)[C@@H](C)CC)NC1=O) [Example 448: ((N-Me)G)-IC+RRS-((tBu)A)-PP-(Nva)-(Pen)+IP-NH2],5000 nM,5000 nM
[Sar]ICSRSLP[Oic]I[Pen]IP[(2S)‑3‑(Triazol-1-yl)‑2‑(amino)propanoic acid]-NH2 (disulfide 3-11) [Example 437: ((N-Me)G)-IC+SRSLP-(Oic)-I-(Pen)+IP-((2S)-3-(Triazol-1-yl)-2-(amino)propanoic acid)-NH2],46 nM,40 nM
[Sar]ICSRS[tBuAla]P[Pro(4-spirocPr)]I[Pen]IP-NH2 (disulfide 3-11; N-terminus assumed; SMILES CC[C@H](C)[C@H](NC(=O)CNC)C(=O)N[C@H]1CSSC(C)(C)[C@@H](C(=O)N[C@H](C(=O)N2CCC[C@H]2C(N)=O)[C@@H](C)CC)NC(=O)[C@H]([C@@H](C)CC)NC(=O)[C@@H]2CC3(CC3)CN2C(=O)[C@@H]2CCCN2C(=O)[C@H](CC(C)(C)C)NC(=O)[C@H](CO)NC(=O)[C@H](CCCNC(=N)N)NC(=O)[C@H](CO)NC1=O),36 nM,9.4 nM
"[X7]ICSRSLP[Oic]I[Pen]IP-NH2 (disulfide 3-11; N-terminus assumed; SMILES CC[C@H](C)[C@H](NC(=O)[C@@H](N)Cc1ccc(-c2c(C)noc2C)cc1)C(=O)N[C@H]1CSSC(C)(C)[C@@H](C(=O)N[C@H](C(=O)N2CCC[C@H]2C(N)=O)[C@@H](C)CC)NC(=O)[C@H]([C@@H](C)CC)NC(=O)[C@@H]2C[C@@H]3CCCC[C@@H]3N2C(=O)[C@@H]2CCCN2C(=O)[C@H](CC(C)C)NC(=O)[C@H](CO)NC(=O)[C@H](CCCNC(=N)N)NC(=O)[C@H](CO)NC1=O) [Example 360: (4-(3,5-Dimethyl-1,2-oxazol-4-yl)-L-phenylalanine)-IC+SRSLP-(Oic)-I-(Pen)+IP-NH2]",120 nM,73 nM
[Sar][Orn][Orn][Orn]ICSRS[tBuAla]PPI[Pen]IP-NH2 (disulfide 6-14; N-terminus assumed; SMILES CC[C@H](C)[C@H](NC(=O)[C@H](CCCN)NC(=O)[C@H](CCCN)NC(=O)[C@H](CCCN)NC(=O)CNC)C(=O)N[C@H]1CSSC(C)(C)[C@@H](C(=O)N[C@H](C(=O)N2CCC[C@H]2C(N)=O)[C@@H](C)CC)NC(=O)[C@H]([C@@H](C)CC)NC(=O)[C@@H]2CCCN2C(=O)[C@@H]2CCCN2C(=O)[C@H](CC(C)(C)C)NC(=O)[C@H](CO)NC(=O)[C@H](CCCNC(=N)N)NC(=O)[C@H](CO)NC1=O) [Example 381: ((N-Me)G)-(Orn)-(Orn)-(Orn)-IC+SRS-((tBu)A)-PPI-(Pen)+IP-NH2],600 nM,470 nM
[dF]ICSRSLP[Oic]I[Pen]IP-NH2 (disulfide 3-11; N-terminus assumed; SMILES CC[C@H](C)[C@H](NC(=O)[C@H](N)Cc1ccccc1)C(=O)N[C@H]1CSSC(C)(C)[C@@H](C(=O)N[C@H](C(=O)N2CCC[C@H]2C(N)=O)[C@@H](C)CC)NC(=O)[C@H]([C@@H](C)CC)NC(=O)[C@@H]2C[C@@H]3CCCC[C@@H]3N2C(=O)[C@@H]2CCCN2C(=O)[C@H](CC(C)C)NC(=O)[C@H](CO)NC(=O)[C@H](CCCNC(=N)N)NC(=O)[C@H](CO)NC1=O) [Example 370: fIC+SRSLP-(Oic)-I-(Pen)+IP-NH2],235 nM,170 nM
[Sar]ICSRSLP[Oic]I[Pen]I[5‑Azaspiro(2.4)heptane‑1‑carboxylic acid]-OH (disulfide 3-11) [Example 419: ((N-Me)G)-IC+SRSLP-(Oic)-I-(Pen)+I-((5-Azaspiro[2.4]heptane-1-carboxylic acid)-OH],70 nM,42 nM
[Sar]ICSRSLP[Oic]I[Pen]IP[5‑Azaspiro(2.4)heptane‑1‑carboxylic acid]-OH (disulfide 3-11) [Example 438: ((N-Me)G)-IC+SRSLP-(Oic)-I-(Pen)+IP-((5-Azaspiro[2.4]heptane-1-carboxylic acid)-OH],31 nM,22 nM
[(3-Me)H]ICSRSLP[Oic]I[Pen]IP-NH2 (disulfide 3-11) [Example 444: ((3-Me)H)-IC+SRSLP-(Oic)-I-(Pen)+IP-NH2],130 nM,9.8 nM
[Sar]ICSRSLP[Oic]I[Pen]IP[X8]-OH (disulfide 3-11; N-terminus assumed; SMILES CC[C@H](C)[C@H](NC(=O)CNC)C(=O)N[C@H]1CSSC(C)(C)[C@@H](C(=O)N[C@H](C(=O)N2CCC[C@H]2C(=O)N[C@H](CCC(=O)O)CC(C)C)[C@@H](C)CC)NC(=O)[C@H]([C@@H](C)CC)NC(=O)[C@@H]2C[C@@H]3CCCC[C@@H]3N2C(=O)[C@@H]2CCCN2C(=O)[C@H](CC(C)C)NC(=O)[C@H](CO)NC(=O)[C@H](CCCNC(=N)N)NC(=O)[C@H](CO)NC1=O) [Example 450: ((N-Me)G)-IC+SRSLP-(Oic)-I-(Pen)+IP-((R)-4-Amino-6-methylheptanoic acid)-OH],31 nM,52 nM
[Sar][Orn][Orn][Orn]ICSRSLP[Oic]I[Pen]IP-NH2 (disulfide 6-14; N-terminus assumed; SMILES CC[C@H](C)[C@H](NC(=O)[C@H](CCCN)NC(=O)[C@H](CCCN)NC(=O)[C@H](CCCN)NC(=O)CNC)C(=O)N[C@H]1CSSC(C)(C)[C@@H](C(=O)N[C@H](C(=O)N2CCC[C@H]2C(N)=O)[C@@H](C)CC)NC(=O)[C@H]([C@@H](C)CC)NC(=O)[C@@H]2C[C@@H]3CCCC[C@@H]3N2C(=O)[C@@H]2CCCN2C(=O)[C@H](CC(C)C)NC(=O)[C@H](CO)NC(=O)[C@H](CCCNC(=N)N)NC(=O)[C@H](CO)NC1=O) [Example 405: ((N-Me)G)-(Orn)-(Orn)-(Orn)-IC+SRSLP-(Oic)-I-(Pen)+IP-NH2],650 nM,510 nM
"[NMeA]ICSRS[tBuAla]P[(3R,6R)‑1,1‑Difluoro‑5‑azaspiro(2.4)heptane‑6‑carboxylic acid (enantiomer 2)]I[Pen]IP-NH2 (disulfide 3-11)",150 nM,94 nM
"[Sar]ICSRS[Phe(2,3-F2)]P[Oic]I[Pen]IP-NH2 (disulfide 3-11; N-terminus assumed; SMILES CC[C@H](C)[C@H](NC(=O)CNC)C(=O)N[C@H]1CSSC(C)(C)[C@@H](C(=O)N[C@H](C(=O)N2CCC[C@H]2C(N)=O)[C@@H](C)CC)NC(=O)[C@H]([C@@H](C)CC)NC(=O)[C@@H]2C[C@@H]3CCCC[C@@H]3N2C(=O)[C@@H]2CCCN2C(=O)[C@H](Cc2cccc(F)c2F)NC(=O)[C@H](CO)NC(=O)[C@H](CCCNC(=N)N)NC(=O)[C@H](CO)NC1=O)",410 nM,120 nM
[Sar]ICSRS[tBuAla]PPI[Pen]IP[His(τ-Bzl)]-OH (disulfide 3-11; N-terminus assumed; SMILES CC[C@H](C)[C@H](NC(=O)CNC)C(=O)N[C@H]1CSSC(C)(C)[C@@H](C(=O)N[C@H](C(=O)N2CCC[C@H]2C(=O)N[C@@H](Cc2cn(Cc3ccccc3)cn2)C(=O)O)[C@@H](C)CC)NC(=O)[C@H]([C@@H](C)CC)NC(=O)[C@@H]2CCCN2C(=O)[C@@H]2CCCN2C(=O)[C@H](CC(C)(C)C)NC(=O)[C@H](CO)NC(=O)[C@H](CCCNC(=N)N)NC(=O)[C@H](CO)NC1=O) [Example 447: ((N-Me)G)-IC+SRS-((tBu)A)-PPI-(Pen)+IP-((1-Bn)H)-OH],21 nM,35 nM
"[NMeA]ICSRS[tBuAla]P[(3R,6R)‑1,1‑Difluoro‑5‑azaspiro(2.4)heptane‑6‑carboxylic acid (enantiomer 1)]I[Pen]IP-NH2 (disulfide 3-11)",29 nM,4.7 nM
